This assay concerns the target HuCD100-His (human) (UniProt Q92854). Put plainly: cell-based or functional assay.

B1: Pepinemab (antibody, INN chains, looked up, V domains shown)
VH: QVQLVQSGAEVKKPGSSVKVSCKASGYSFSDYYMHWVRQAPGQGLEWMGQINPTTGGASYNQKFKGKATITVDKSTSTAYMELSSLRSEDTAVYYCARYYYGRHFDVWGQGTTVTVSS
VL: DIVMTQSPDSLAVSLGERATINCKASQSVDYDGDSYMNWYQQKPGQPPKLLIYAASNLESGVPDRFSGSGSGTDFTLTISSLQAEDVAVYYCQQSNEDPYTFGQGTKLEIK
modifications: IgG4
In the case of B1, the MDSC proportion (%) at 2.821 nM antibody worked out at 27.1%, the MDSC proportion (%) at 8.463 nM antibody came to 16.3%, the MDSC proportion (%) at 25.389 nM antibody is 8.29% and the MDSC proportion (%) at 76.166 nM antibody turned out to be 6.92%. The same molecule returned an MDSC proportion (%) at 228.498 nM antibody of 6.97% and an MDSC proportion (%) at 685.495 nM antibody of 10.3%.
